Source: patent US20130129746A1 (GlaxoSmithKline, published 2013)
Where two headings read alike, the source gives them in different places. One block for each binder: values may come before it.

Columns and labels:
[1] = target: T1, Human Serum Albumin (human, UniProt P02768 25-609); assay: BIAcore SPR
T1 construct: mature; purified protein on CM5 chips for BIAcore; also called HSA; human SA
Procedure: (§1) Binding to HSA, CSA, MSA and RSA by BIAcore was confirmed using purified protein at 3 concentrations 1 μM, 500 nM and 50 nM.

[2] = target: T2, Rat Serum Albumin (rat, UniProt P02770 25-608); assay: BIAcore SPR;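 for koff: purified dAbs run at 1 µM, 500 nM and 50 nM over human, cynomolgus, mouse and rat serum albumin in BIAcore binding measurements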
T2 construct: mature; purified protein on CM5 chips for BIAcore; also called RSA; rat SA
Procedure: as §1

[3] = target: T3, Cynomolgus monkey Serum Albumin (Cynomolgus monkey, UniProt A2V9Z4 25-608); assay: BIAcore SPR;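 for koff: purified dAbs run at 1 µM, 500 nM and 50 nM over human, cynomolgus, mouse and rat serum albumin in BIAcore binding measurements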
T3 construct: mature; purified protein on CM5 chips for BIAcore; also called CSA; cyno SA
Procedure: as §1

[4] = target: T4, mouse serum albumin (mouse, UniProt P07724 25-608); assay: BIAcore SPR;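 for koff: purified dAbs run at 1 µM, 500 nM and 50 nM over human, cynomolgus, mouse and rat serum albumin in BIAcore binding measurements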
T4 construct: mature; purified protein on CM5 chips for BIAcore; also called MSA; mouse SA
Procedure: as §1

[5] = target: T2, Rat Serum Albumin; assay: Albumin KD column of the PK table (repeats Table 6)
[6] = target: T4, mouse serum albumin; assay: as above
[7] = target: T1, Human Serum Albumin; assay: BIAcore SPR; remark: listed apart in the source
[8] = target: T2, Rat Serum Albumin; assay: BIAcore SPR; remark: listed apart in the source;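 for koff: purified dAbs run at 1 µM, 500 nM and 50 nM over human, cynomolgus, mouse and rat serum albumin in BIAcore binding measurements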
[9] = target: T3, Cynomolgus monkey Serum Albumin; assay: BIAcore SPR; remark: listed apart in the source
[10] = target: T1, Human Serum Albumin; assay: BIAcore SPR; remark: listed apart in the source
Source text: (§2) MSA antigen was obtained from Sigma (essentially fatty acid free, ˜99% (agarose gel electrophoresis), lyophilized powder Cat. No. A3559) and CSA was purified from Cynomolgus serum albumin using prometic blue resin (Amersham).

[11] = target: T2, Rat Serum Albumin; assay: BIAcore SPR; remark: listed apart in the source
Source text: as §2

[12] = target: T3, Cynomolgus monkey Serum Albumin; assay: BIAcore SPR; remark: listed apart in the source
Source text: as §2

[13] = target: T4, mouse serum albumin; assay: BIAcore SPR; remark: listed apart in the source
Source text: as §2

[14] = target: T1, Human Serum Albumin; assay: BIAcore SPR, second independent experiment;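 note: purified domain antibodies run as analytes at 50 nM, 500 nM and 1 µM over HSA, CSA, MSA and RSA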
Procedure: as §1

[15] = target: T2, Rat Serum Albumin; assay: BIAcore SPR, second independent experiment;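 note: purified domain antibodies run as analytes at 50 nM, 500 nM and 1 µM over HSA, CSA, MSA and RSA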
Procedure: as §1

[16] = target: T3, Cynomolgus monkey Serum Albumin; assay: BIAcore SPR, second independent experiment;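 note: purified domain antibodies run as analytes at 50 nM, 500 nM and 1 µM over HSA, CSA, MSA and RSA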
Procedure: as §1

[17] = target: T4, mouse serum albumin; assay: BIAcore SPR, second independent experiment;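 note: purified domain antibodies run as analytes at 50 nM, 500 nM and 1 µM over HSA, CSA, MSA and RSA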
Procedure: as §1

T2 sequence (P02770 25-608): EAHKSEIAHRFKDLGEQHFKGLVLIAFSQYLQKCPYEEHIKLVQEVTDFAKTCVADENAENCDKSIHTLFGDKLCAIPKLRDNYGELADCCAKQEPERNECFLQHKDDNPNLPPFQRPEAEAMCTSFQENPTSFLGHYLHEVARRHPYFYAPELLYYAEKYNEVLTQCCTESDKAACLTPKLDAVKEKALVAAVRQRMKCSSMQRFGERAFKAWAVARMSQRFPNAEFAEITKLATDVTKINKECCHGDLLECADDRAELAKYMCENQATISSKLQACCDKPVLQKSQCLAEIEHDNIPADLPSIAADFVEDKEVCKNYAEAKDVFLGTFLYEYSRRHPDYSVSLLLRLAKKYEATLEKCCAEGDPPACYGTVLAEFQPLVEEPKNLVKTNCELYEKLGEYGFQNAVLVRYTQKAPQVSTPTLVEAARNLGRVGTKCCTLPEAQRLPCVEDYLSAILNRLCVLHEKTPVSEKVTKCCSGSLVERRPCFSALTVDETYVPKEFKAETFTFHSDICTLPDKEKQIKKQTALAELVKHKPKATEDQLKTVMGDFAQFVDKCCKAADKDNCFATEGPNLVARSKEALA
T4 sequence (P07724 25-608): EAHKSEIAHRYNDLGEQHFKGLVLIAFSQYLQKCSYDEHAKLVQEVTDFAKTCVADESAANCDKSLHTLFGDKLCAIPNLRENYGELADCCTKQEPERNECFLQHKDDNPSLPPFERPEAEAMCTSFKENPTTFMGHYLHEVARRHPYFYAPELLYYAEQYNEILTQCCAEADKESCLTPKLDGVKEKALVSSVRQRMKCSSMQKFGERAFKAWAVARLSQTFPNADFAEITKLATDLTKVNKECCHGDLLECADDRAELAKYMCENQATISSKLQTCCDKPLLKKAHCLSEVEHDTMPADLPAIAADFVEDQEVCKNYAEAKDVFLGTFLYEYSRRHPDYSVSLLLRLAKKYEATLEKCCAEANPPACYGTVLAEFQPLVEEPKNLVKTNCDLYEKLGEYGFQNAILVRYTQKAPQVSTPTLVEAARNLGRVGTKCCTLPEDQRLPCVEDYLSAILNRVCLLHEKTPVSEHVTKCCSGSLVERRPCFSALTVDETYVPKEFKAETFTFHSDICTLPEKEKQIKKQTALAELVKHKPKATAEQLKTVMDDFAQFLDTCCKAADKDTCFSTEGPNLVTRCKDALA
T3 sequence (A2V9Z4 25-608): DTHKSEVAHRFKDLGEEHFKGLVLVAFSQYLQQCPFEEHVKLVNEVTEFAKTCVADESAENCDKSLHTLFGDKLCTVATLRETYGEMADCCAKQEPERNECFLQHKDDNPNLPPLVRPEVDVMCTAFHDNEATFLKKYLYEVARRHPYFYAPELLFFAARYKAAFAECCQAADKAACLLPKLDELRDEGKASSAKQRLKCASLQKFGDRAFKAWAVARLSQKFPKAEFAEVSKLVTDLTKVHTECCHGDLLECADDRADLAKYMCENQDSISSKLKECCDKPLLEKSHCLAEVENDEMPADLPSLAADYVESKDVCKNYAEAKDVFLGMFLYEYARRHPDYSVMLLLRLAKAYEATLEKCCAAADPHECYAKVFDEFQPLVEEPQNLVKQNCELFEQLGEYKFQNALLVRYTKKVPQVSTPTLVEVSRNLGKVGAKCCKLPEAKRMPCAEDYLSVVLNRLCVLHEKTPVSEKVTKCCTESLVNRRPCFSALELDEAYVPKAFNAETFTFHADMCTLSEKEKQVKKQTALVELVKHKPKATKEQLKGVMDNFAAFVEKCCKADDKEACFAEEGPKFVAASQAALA

Kd [1]: 350 nM
koff [1]: 0.413 s⁻¹
kon [1]: 1.26e+06 M⁻¹ s⁻¹
Kd [2]: 200 nM
koff [2]: 0.522 s⁻¹
kon [2]: 2.76e+06 M⁻¹ s⁻¹
Kd [3]: ≥ 6000 nM
Kd [4]: 130 nM
koff [4]: 0.189 s⁻¹
kon [4]: 1.53e+06 M⁻¹ s⁻¹
Kd [5]: 200 nM
Kd [6]: 130 nM
B1: DOM7h-11-12 (other)
VL: DIQMTQSPSSLSASVGDRVTITCRASRPIGTMLSWYQQKPGKAPKLLILFGSRLQSGVPSRFSGSGSGTDFTLTISSLQPEDFATYYCAQAGTHPTTFGQGTKVEIKR

Ka [7]: 1.51e+08 M⁻¹
Kd [7]: 6.71 nM
kon [7]: 1.14e+06 M⁻¹ s⁻¹
Ka [8]: 5.96e+07 M⁻¹
Kd [8]: 16.9 nM
kon [8]: 846000 M⁻¹ s⁻¹
B2: DOM7h-11-88 (other)
VL: DIQMTQSPSSLSASVGDRVTITCRASRPIGTMLSWYQQKPGKAPKLLILAFSRLQSGVPSRFSGSGSGTDFTLTISSLQPEDFATYYCAQAGTHHTTFGQGTKVENKR
notes: Vk dAb; also called DOM7h-11-67 W108R

Ka [7]: 9.51e+07 M⁻¹
Kd [7]: 10.7 nM
kon [7]: 790000 M⁻¹ s⁻¹
Ka [8]: 2.8e+07 M⁻¹
Kd [8]: 37.8 nM
kon [8]: 560000 M⁻¹ s⁻¹
Ka [9]: 1.08e+08 M⁻¹
Kd [9]: 13.4 nM
kon [9]: 833000 M⁻¹ s⁻¹
B3: DOM7h-11-86 (other)
VL: DIQMTQSPSSLSASVGDRVTITCRASRPIGTMLSWYQQKPGKAPKLLILAFSRLQSGVPSRFSGSGSGTDFTLTISSLQPEDVATYYCAQAGTHPTTFGQGTKVEIKR
notes: Vk dAb; also called DOM7h-11-65 W108R/N106I

Kd [10]: 33.5 nM
Kd [11]: 25.3 nM
Kd [12]: 37.9 nM
Kd [13]: 15.5 nM
B4: DOM7h-11-68 (other)
VL: DIQMTQSPSSLSASVGDRVTITCRASRPIGTMLSWYQQKPGEAPKLLILAFSRLQSGVPSRFSGSGSGTDFTLTISSLQPEDFATYYCAQTGTHPTTFGQGTKVEIKW
notes: Vk dAb

Kd [10]: 1.6 nM
Kd [11]: 23.4 nM
Kd [12]: 5.2 nM
Kd [13]: 7.6 nM
B5: DOM7h-11-56 (other)
VL: DIQMTQSPSSLSASVGDRVTISCRASRPIGTMLSWYQQKPGKAPKLLILAFSRLQSGVPSRFSGSGSGTDFTLTISSLQPEDFATYYCAQAGTHPTTFGQGTKVEIKW
notes: Vk dAb

Ka [10]: 5.52e+08 M⁻¹
Kd [10]: 1.8 nM
kon [10]: 1.22e+06 M⁻¹ s⁻¹
Ka [11]: 3.42e+07 M⁻¹
Kd [11]: 29.2 nM
kon [11]: 566000 M⁻¹ s⁻¹
Ka [12]: 1.63e+08 M⁻¹
Kd [12]: 6.1 nM
kon [12]: 1.34e+06 M⁻¹ s⁻¹
Kd [13]: 10.9 nM
B6: DOM7h-11-57 (other)
VL: DIQMTQSPSSLSASVGDRVTITCRASRPIGTMLSWYQQKPGKAPKLLILAFSRLQSGVPSRFSGSGSGTDFTLTISNLQPEDFATYYCAQAGTHPTTFGQGTKVEIKW
notes: Vk dAb

Ka [7]: 5.27e+07 M⁻¹
Kd [7]: 20.2 nM
koff [7]: 0.0087 s⁻¹
kon [7]: 469000 M⁻¹ s⁻¹
Ka [8]: 1.91e+07 M⁻¹
Kd [8]: 53.6 nM
kon [8]: 376000 M⁻¹ s⁻¹
Ka [9]: 1.01e+08 M⁻¹
Kd [9]: 9.99 nM
kon [9]: 747000 M⁻¹ s⁻¹
B7: DOM7h-11-90 (other)
VL: DIQMTQSPSSLSASVGDRVTITCRASRPIGTMLSWYQQKPGKAPKLLILAFSRLQSGVPSRFSGSGSGTDFTLTISNLQPEDFATYYCAQAGTHPTTFGQGTKVEIKR
notes: Vk dAb; also called DOM7h-11-57 W108R/N106I

Ka [10]: 1.12e+09 M⁻¹
Kd [10]: 0.9 nM
kon [10]: 1.75e+06 M⁻¹ s⁻¹
Ka [11]: 8.6e+07 M⁻¹
Kd [11]: 11.6 nM
kon [11]: 1.33e+06 M⁻¹ s⁻¹
Ka [12]: 3.69e+08 M⁻¹
Kd [12]: 2.7 nM
kon [12]: 2.03e+06 M⁻¹ s⁻¹
Kd [13]: 6.7 nM
B8: DOM7h-11-67 (other)
VL: DIQMTQSPSSLSASVGDRVTITCRASRPIGTMLSWYQQKPGKAPKLLILAFSRLQSGVPSRFSGSGSGTDFTLTISSLQPEDFATYYCAQAGTHHTTFGQGTKVENKW
notes: Vk dAb

Ka [10]: 5.52e+08 M⁻¹
Kd [10]: 1.8 nM
kon [10]: 1.3e+06 M⁻¹ s⁻¹
Ka [11]: 4.06e+07 M⁻¹
Kd [11]: 24.6 nM
kon [11]: 780000 M⁻¹ s⁻¹
Ka [12]: 6.35e+07 M⁻¹
Kd [12]: 15.7 nM
kon [12]: 1.19e+06 M⁻¹ s⁻¹
Kd [13]: 9.4 nM
B9: DOM7h-11-65 (other)
VL: DIQMTQSPSSLSASVGDRVTITCRASRPIGTMLSWYQQKPGKAPKLLILAFSRLQSGVPSRFSGSGSGTDFTLTISSLQPEDVATYYCAQAGTHPTTFGQGTKVEIKW
notes: Vk dAb

Kd [10]: 2.1 nM
Kd [11]: 24.1 nM
Kd [12]: 5.5 nM
Kd [13]: 10.9 nM
B10: DOM7h-11-80 (other)
VL: DIQMTQSPSSLSASVGDRVTIFCRASRPIGTMLSWYQQKPGKAPKLLILAFSRLQSGVPSRFSGSGSGTDFTLTISSLQPEDFATYYCAQAGTHPTTFGQGTKVEIKW
notes: Vk dAb

Kd [10]: 5.9 nM
Kd [11]: 11.1 nM
Kd [12]: 11.7 nM
Kd [13]: 6.9 nM
B11: DOM7h-11-79 (other)
VL: DIQMTQSPSSLSASVGDRVTITCRASRPIGTMLSWYQQKPGKAPKLLILAFSRLQSGVPSRFSGSGSGTDFTLTISSLQPEDFATYYCAQTGTHPTTFGQGTKVEIKW
notes: Vk dAb

Kd [1]: 36 nM
koff [1]: 0.051 s⁻¹
kon [1]: 3.4e+06 M⁻¹ s⁻¹
Kd [2]: 80 nM
koff [2]: 0.06 s⁻¹
kon [2]: 1.64e+06 M⁻¹ s⁻¹
Kd [3]: 10000 nM
koff [3]: 1.36 s⁻¹
kon [3]: 225000 M⁻¹ s⁻¹
Kd [4]: 150 nM
koff [4]: 0.024 s⁻¹
kon [4]: 440000 M⁻¹ s⁻¹
Kd [14]: 32000 nM
koff [14]: 0.27 s⁻¹
kon [14]: 8390 M⁻¹ s⁻¹
Kd [15]: 29000 nM
koff [15]: 0.37 s⁻¹
kon [15]: 13000 M⁻¹ s⁻¹
Kd [16]: 65000 nM
koff [16]: 0.48 s⁻¹
kon [16]: 7300 M⁻¹ s⁻¹
Kd [17]: 1600 nM
koff [17]: 0.0623 s⁻¹
kon [17]: 40000 M⁻¹ s⁻¹
B12: DOM7h-11-18 (other)
VL: DIQMTQSPSSLSASVGDRVTITCRASRPIGTMLSWYQQKPGKAPKLLIWFGSRLQSGVPSRFSGSGSGTDFTLTISSLQPEDFATYHCAQAGTHPTTFGQGTKVEIKR

Ka [7]: 1.37e+08 M⁻¹
Kd [7]: 7.39 nM
kon [7]: 1.17e+06 M⁻¹ s⁻¹
Ka [8]: 5.77e+07 M⁻¹
Kd [8]: 17.6 nM
kon [8]: 830000 M⁻¹ s⁻¹
Ka [9]: 2.47e+08 M⁻¹
Kd [9]: 4.21 nM
kon [9]: 1.37e+06 M⁻¹ s⁻¹
B13: DOM7h-11-87 (other)
VL: DIQMTQSPSSLSASVGDRVTITCRASRPIGTMLSWYQQKPGKAPKLLILAFSRLQSGVPSRFSGSGSGTDFTLTISSLQPEDFATYYCAQAGTHHTTFGQGTKVEIKR
notes: Vk dAb; also called DOM7h-11-67 W108R/N106I

Kd [10]: 3.2 nM
Kd [11]: 27.1 nM
Kd [12]: 5.9 nM
Kd [13]: 10 nM
B14: DOM7h-11-69 (other)
VL: DIQMTQSPSSLSASVGDRVTITCRASRPIGTMLSWYQQKPGKAPKLLILAFSRLQSGVPSRFSGSGSGTDFTLTISSLQPEDFATYYCAQAGVHPTTFGQGTKVEIKR
notes: Vk dAb

Kd [1]: 65 nM
koff [1]: 0.11 s⁻¹
kon [1]: 1.8e+06 M⁻¹ s⁻¹
Kd [2]: 28 nM
koff [2]: 0.091 s⁻¹
kon [2]: 980000 M⁻¹ s⁻¹
Kd [3]: ≥ 10000 nM
Kd [4]: 100 nM
koff [4]: 0.037 s⁻¹
kon [4]: 1.4e+06 M⁻¹ s⁻¹
Kd [14]: 38000 nM
koff [14]: 0.209 s⁻¹
kon [14]: 5400 M⁻¹ s⁻¹
Kd [15]: 17000 nM
koff [15]: 0.14 s⁻¹
kon [15]: 8100 M⁻¹ s⁻¹
Kd [16]: 375000 nM
koff [16]: 0.62 s⁻¹
kon [16]: 1700 M⁻¹ s⁻¹
Kd [17]: 18000 nM
koff [17]: 0.088 s⁻¹
kon [17]: 4900 M⁻¹ s⁻¹
B15: DOM7h-11-19 (other)
VL: DIQMTQSPSSLSASVGDRVTITCRASRPIGTMLSWYQQKPGKAPKLLILFGSRLQSGVPSRFSGSGSGTDFTLTISSLQPEDFATYYCAQTGTHPTTFGQGTKVEIKR

Kd [1]: 280 nM
koff [1]: 0.0339 s⁻¹
kon [1]: 189000 M⁻¹ s⁻¹
Kd [2]: 410 nM
koff [2]: 0.228 s⁻¹
kon [2]: 560000 M⁻¹ s⁻¹
Kd [3]: 180 nM
koff [3]: 0.105 s⁻¹
kon [3]: 630000 M⁻¹ s⁻¹
Kd [4]: 65 nM
koff [4]: 0.0924 s⁻¹
kon [4]: 2.28e+06 M⁻¹ s⁻¹
Kd [5]: 410 nM
B16: DOM7h-14-18 (other)
VL: DIQMTQSPSSLSASVGDRVTITCRASQWIGSQLSWYQQKPGKAPKLLIMWRSSLQSGVPSRFSGSGSGTDFTLTISSLQPEDFATYYCAQGLMKPMTFGQGTKVEIKR
notes: Vk dAb (AlbudAb)

Kd [1]: 70 nM
koff [1]: 0.0525 s⁻¹
kon [1]: 826000 M⁻¹ s⁻¹
Kd [2]: 890 nM
koff [2]: 0.287 s⁻¹
kon [2]: 320000 M⁻¹ s⁻¹
Kd [3]: 225 nM
koff [3]: 0.156 s⁻¹
kon [3]: 700000 M⁻¹ s⁻¹
Kd [4]: 60 nM
koff [4]: 0.0576 s⁻¹
kon [4]: 1.16e+06 M⁻¹ s⁻¹
Kd [5]: 890 nM
B17: DOM7h-14-19 (other)
VL: DIQMTQSPSSLSASVGDRVTISCRASQWIGSQLSWYQQKPGEAPKLLIMWRSSLQSGVPSRFSGSGSGTDFTLTISSLQPEDFATYYCAQGAALPRTFGQGTKVEIKR
notes: Vk dAb (AlbudAb)
